Results on 3 molecules are retold here after US6656735, “Method for identification of target genes of transcription factors” (GSF Forschungszentrum Fuer Umwelt Und Gesundheit GmbH).

Data set [1] deals with T1, Engrailed 2 full length (En2, ChEn2) (Gallus gallus, UniProt Q05917 Q05917:1-289).
T1 sequence: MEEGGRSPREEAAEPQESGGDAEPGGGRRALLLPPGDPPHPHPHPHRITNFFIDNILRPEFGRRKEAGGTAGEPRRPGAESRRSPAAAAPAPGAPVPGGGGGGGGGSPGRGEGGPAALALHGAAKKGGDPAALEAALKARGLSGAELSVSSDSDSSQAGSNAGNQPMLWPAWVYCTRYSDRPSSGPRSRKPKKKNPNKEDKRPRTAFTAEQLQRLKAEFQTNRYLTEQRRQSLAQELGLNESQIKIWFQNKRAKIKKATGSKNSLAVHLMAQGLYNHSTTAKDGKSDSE
The data set is described as follows: EMSA; two shifted complexes; no ATTA core; 20 mM Tris-HCl pH 7.9, 35 mM KCl, 2.5 mM MgCl2, poly-dIdC, on ice. The following applies: label: 32P. For orientation: A gel shift assay detects complexes by their altered migration in electrophoresis.

The target in data set [2] is T2, EnHD (Engrailed 2 homeodomain, 60 aa) (Gallus gallus, UniProt Q05917 Q05917:200-259).
T2 sequence: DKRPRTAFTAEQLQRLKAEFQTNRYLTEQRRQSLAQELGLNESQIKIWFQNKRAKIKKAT
The data set is described as follows: EMSA; four complexes with 10 to 100 ng EnHD; fragment with six NP6 copies. The settings on record: tags: E. coli pET-3a, heparin-sepharose purified, no tag stated; label: 32P. The method, then:
FIGS. 2A, 2B and 2C: Bacterially produced EnHD binds DNA and is efficiently internalized into cells in culture. (A) Polyacrylamide gel electrophoresis is of EnHD purified from *E. coli* extracts (Coomassie staining). (B) Band shift assay, performed by incubating 0.5 ng ^32P-ATP-labeled NP6 oligonucleotides with increasing amounts (0, 10, 20, 50 and 100 ng) of purified EnHD. (C) ES cells (upper Pannels) or GMA24FIA (lower Pannels) were incubated for 2 hrs. with FITC-EnHD (300 ng/ml) (left) or FITC alone (right).
The protocol described in FIG. 1 requires the EnHD added to the culture medium to be internalized by a large number of ES cells. EnHD was produced in E. coli and purified on heparin sepharose. […] To test the binding properties of EnHD, gel shift experiments were performed using a DNA fragment containing six copies of the NP6 site (TCAATTAAAT) (SEQ ID NO:3) known to bind Drosophila Engrailed.

In data set [3] the target is T1, Engrailed 2 full length (En2, ChEn2). In words: EMSA; two shifted complexes; 20 mM Tris-HCl pH 7.9, 35 mM KCl, 2.5 mM MgCl2, poly-dIdC, on ice. The following applies: label: 32P.

B1: BPAG1e promoter oligonucleotide -694 to -665 (dsDNA)
DNA 1: CGCAGAATATTGGCTCAGTAACTAAGTGTG
DNA 2: CACACTTAGTTACTGAGCCAATATTCTGCG
For the molecule B1, the binding result in data set [1] is on record as “binds”.

B2: NP6 site, six copies (dsDNA)
DNA 1: TCAATTAAAT
DNA 2: ATTTAATTGA
Regarding B2, in data set [2], the binding result is “binds”.

B3: BPAG1e promoter oligonucleotide -2225 to -2180 (dsDNA)
DNA 1: CTCAAATAATTAGTCATTAAAAAAAATAAAGGCATATGAGCCAGCCT
DNA 2: AGGCTGGCTCATATGCCTTTATTTTTTTTAATGACTAATTATTTGAG
For the molecule B3, the binding result in data set [3] is “binds”.
